Measurements reported in the DeepSol protein solubility set.

assay: soluble on expression in E. coli; label from the status in PepcDB or PDB records

Q: For “MAKAPDVVDLLALAVERGASDLVITVGLPPMLKIDGEFHPTEYEPLTPQETRRLMYALMDEKQQRIFEEEKELDFSFSLPGKGRYRVNVFLQRGSVGGVLRVVPSAVKSFEELGLPKNIAEIAMSPRGLVLVTGPTGSGKSTTLASMIDYINERKACHIVTIEDPIEFFHKHKRAIVNQREIGSDTKSFHKALRSVLRQAPDVILVGEMRDYETIAAAITAAETGHLVMGTLHTNSAPETIDRIVDVFPENQQEQVRVQLSNNLVAVLTQQLLPKAFGGGRVLAYELMIATPAVRALIREGKTHQLRSVIQTGGQYGMITMDACLADLYRRKLITYEMGLARAVDPKEFMRLAGAPEGARR”, which “soluble on expression in E. coli” value is on record?
A: soluble

Q: For “GVEFMAGYYDTKNQALNPVSRTERPYPIVTVQNYVEKAIKEGRIQMNVEIEAFTTDIRMIVIGNVFEWCLRNGEADFEGNMVRSLGKYLDSTLD”, which “soluble on expression in E. coli” value is on record?
A: not soluble

Q: For “MMEYKIVENGLTYRIGNGASVPISNTGELIKGLRNYGPYEVPSLKYNQIALIHNNQFSSLINQLKSQISSKIDEVWHIHNINISEFIYDSPHFDSIKSQVDNAIDTGVDGIMLVLPEYNTPLYYKLKSYLINSIPSQFMRYDILSNRNLTFYVDNLLVQFVSKLGGKPWILNVDPEKGSDIIIGTGATRIDNVNLFCFAMVFKKDGTMLWNEISPIVTSSEYLTYLKSTIKKVVYGFKKSNPDWDVEKLTLHVSGKRPKMKDGETKILKETVEELKKQEMVSRDVKYAILHLNETHPFWVMGDPNNRFHPYEGTKVKLSSKRYLLTLLQPYLKRNGLEMVTPIKPLSVEIVSDNWTSEEYYHNVHEILDEIYYLSKMNWRGFRSRNLPVTVNYPKLVAGIIANVNRYGGYPINPEGNRSLQTNPWFL”, which “soluble on expression in E. coli” value is on record?
A: soluble

Q: For “MGSDKIHHHHHHVLVVVPEILDPKVDLVFKKVFGSQENKSILLSFLNAVLNWTGEQKIVDVKILNPYLEPESIDDSVGILDIKLQLENDDLVDVEMQIGNLGNMERRSTYYTCRMFGDQNISGGRYQDLNRVIAINVLDFTRIKNIERYHTKFRLRETQENIDLTDAIEIHFIELPKLRQEMASYTDPLDRWVVFLKGGWNMELLDRLAKEDPAIGQAKQVLEQMASNPRERELYELRRKAILDRNSALYEAKMEGKAEGKAEGQAIILLRLLKKKFGFMPVEMENRVMSMSAEKLQELAEAIFDLGTIDELNNFISR”, which “soluble on expression in E. coli” value is on record?
A: not soluble

Q: With “MGSDKIHHHHHHMDPAPSLGCSLKDVKWSSVAVPLDLLVSTYRLPQIARLDNGECVEGLRENDYLLIHSCRQWTTITAHSLEEGHYVIGPKIEIPVHYAGQFKLLEQDRDIKEPVQYFNSVEEVAKAFPERVYVMEDITFNVKVASGECNEDTEVYNITLCTGDELTLMGQAEILYAKTFKEKSRLNTIFKKIGKLNSISKLGKGKMPCLICMNHRTNESISLPFQCKGRFSTRSPLELQMQEGEHTIRNIVEKTRLPVNVTVPSPPPRNPYDLHFIREGHRYKFVNIQTKTVVVCCVLRNNKILPMHFPLHLTVPKFSLPEHLVKGESWPETLVHHWLGICQEQFDIDEYSRAVRDVKTDWNEECK” as the sequence, how does the “soluble on expression in E. coli” value read?
A: not soluble

Q: For “MAHHHHHHMFKCATRCLLDTKTVPLKPQRPFKLHTAGRTDMAPLPTQAVYDAEQLKQSLALMFRIRRMESLCDQSYKLKKIRGFCHLYIGQEAIPAGMENVLTFEDPIITGYRDHGWYISRGGKPEDVFAEMFGRQGGCSKGKGGSMHMYRVDNGFYGGNGIVGAQVSIGAGLAWRFAMENRDSPKHVAVTFYGDGAANQGQIYESMNIAALQRLPVIFAVENNHFGMGTSAARGSYQAEFYRRGDYIPGIKVDGMDVLAVQEGTRYARDYCMSGKGPIVMELDCYRYMGHSMSDPDNQYRTKSDIQHVKQERDCIRKMREFMATEGIMTEDEMSKMEKDVKKEVDQDLQKAQKQPMTKLDELFTDIYVGEQYEHRTCQGTVYHKP”, which “soluble on expression in E. coli” value is on record?
A: not soluble

Q: With “MEGFPVRVRVDVRFRDLDPLGHVNNAVFLSYMELARIRYFQRISPDWLEEGHFVVARMEVDYLRPILLGDEVFVGVRTVGLGRSSLRMEHLVTANGESAAKGLGVLVWLEGGRPAPLPEAIRERIRALEGRPL” as the sequence, how does the “soluble on expression in E. coli” value read?
A: soluble

Q: Which “soluble on expression in E. coli” value does the source give for “MKAIITKPMCVVGDNKSTVRFETSTPNNPFVEISNQVYARLKRANAAKPFVDVKTKIKPDKAVEQIKQIEKEPNQISSETVTEETSLEKPKASKASKPSTPTPKKA” here?
A: not soluble

Q: For “MGSDKIHHHHHHQEPENQTLETILNRKSVRKYKDRPVEKEKIDKLIRAGMAAPSSRDRRPWEFIIVTDRKALDTMAEGLPFARMLKETRQAIVVCGDTIKSSNAWFLDCSAASQNLLLAAESMGLGAVWTAVYPYPDRIEIVRKELRLPDHIMPLNVIPVGYPMQKETPKNKYNVQQIHHNGW”, which “soluble on expression in E. coli” value is on record?
A: not soluble

Q: For “MSLSKLKVSVFSKHLQFLQGEELAKATAAIGFDGVDLAVRKGGHVEPATVAKDLPALVAILRKNGLEVPMITTDIADTDTPFTEDLLKAASALGIRYYRFGAYKWSAEKPYAAQLEIMKPKLAKLAALNAKYQMCAMYHTHSGVGVVGASIWDLWYMMKDLDPKLMGMNYDVGHATIEGGLGGWIDSFKIAGNYVRGIAVKDFAWEKDPKGGQRSQWKPIGEGTVKFPQFYGMVAATDFAGPFQMHFEYPLGGANNGTRTLTVPKEEVHAAMKKDLDKTRAMLAQAGLEGHHHHHH”, which “soluble on expression in E. coli” value is on record?
A: not soluble

Q: Which “soluble on expression in E. coli” value does the source give for “MGSDKIHHHHHHMNKIVSFFILILVCSCSDRKEHIANILSMNSIDIKTNRINKDEVIARGAFPFEMIDSLFFLFNGDPSSGALVLCESNASELGHFLQKGNGFGECITPGYIGHCNDTIYVSERSRTRRMTYLLSNHNDSLQYKCLEDVSPKMNSEFYYQICRLQSGLFVGARLFGKEHLFTLLDESLDTLTTFARVPIDIEENANNKLAPFIGHLCIDDNTVYYASNDFSYMAAYDILSEKEIKPVFERMYISPIIQKSANGISLDKYKHLLGFGDIRVYQNYIFATYIGKPDITMDQENDISALVPTHLLVFNKDGVPIVKFKFPFKIRSFVFTKSKMYLLDVDCNIESVDLVELWKHLPD” here?
A: not soluble

Q: Which “soluble on expression in E. coli” value does the source give for “MSGNPGSSLSALRPTPPERGSFPLDHDGECTKYMQEYLKCMQLVQNENAMNCRLLAKDYLRCRMDHQLMDYDEWSHLGLPEDAPGNNGKTIKDATDNK” here?
A: not soluble

Q: With “DILLTQSPAILSVSPGERVSFSCRASQSIGTDIHWYQQRTNGSPRLLIKYASESISGIPSRFSGSGSGTDFTLSINSVESEDIANYYCQQSNRWPFTFGSGTKLEIKRADAAPTVSIFPPSSEQLTSGGASVVCFLNNFYPKDINVKWKIDGSERQNGVLNSWTDQDSKDSTYSMSSTLTLTKDEYERHNSYTCEATHKTSTSPIVKSFNRN” as the sequence, how does the “soluble on expression in E. coli” value read?
A: soluble

Q: Which “soluble on expression in E. coli” value does the source give for “MGSDKIHHHHHHMPIDTVGEQISLGKTSNEQANHIFLFLEVFKQEGGIQSYVKDIFRAYSGLSQGYQAEVLLLRDSPECSNPFTSNNLKFHYFQNPSPQIGRIKMAGVLLKFLLQRRPQMVFCGHIKLAVLVQTLCQPLGIPYTILTYGKEFWEPLKNQERRALAAAKEIWTISRYSRDRACAVNGIDPHKVKMLPCAIDGNKFTPGAKQPELIDKYGLTDAKVLMTVARLWSGDIYKGVDVTIRALPKIIQSFPEVKYLVIGRGDDQPRLAQLAQDLGVSDRVIFAGFVPTEQLMAHYRLADAYIMPSQEGFGIVYLEAMACGVPVLSGDDDGSADPLQDGKLGWRVPHRNPEAVAAACLEILQGDDQRCDGEWLREQAIALFGMDALQKQLLSLVHTQN” here?
A: not soluble

Q: For “MHCAENCIFCKIIAGDIPSAKVYEDEHVLAFLDISQVTKGHTLVIPKTHIENVYEFTDELAKQYFHAVPKIARAIRDEFEPIGLNTLNNNGEKAGQSVFHYHMHIIPRYGKGDGFGAVWKTHADDYKPEDLQNISSSIAKRLASS”, which “soluble on expression in E. coli” value is on record?
A: soluble

Q: Which “soluble on expression in E. coli” value does the source give for “MKVNTWFGVLELDSNGKTLSSEVFPKDIRELALRSLSLRESRQNLPPEGFDLKTAALECGFTESLSEYYSLLHKVTLETVKLQVSQALTPDQRIIQAVEALDDINETTNSLSERLFEWYGGYFPESGLSGEELAVFISRYGSRENLPPEDPHYLKAKNSMGAKLEAADEVLLKGLAESVCSLYERRKQIEAYIESSMEILAPNLALLAGPMLGARLISIAGSLEKLAAFPSSTIQVIGASKALFKHLRSRAPSPKHGIIYSHPLINTSPWWVRGKVARALAAKLSLAARIDFYSAKRNPSLENELEEKIRKIRAENPRPPQKRQEIRAKPKKKRRKLEHHHHHH” here?
A: soluble

Q: Which “soluble on expression in E. coli” value does the source give for “MSLRTLAVETSCDETALAIYDDQKGVLGNVILSQAVVHSPFGGVVPELSAREHTRNILPIFDRLLKESRINLEEIDFISFTLTPGLILSLVVGVAFAKALAYEYRKPLVPVHHLEGHIYSVFLEKKVEYPFLALIISGGHTDLYLVRDFGRYDFLGGTLDDAVGEAYDKVAKMLGLGYPGGPIIDRLAKEGKKLYPLPKPLMEEGNLNFSFSGLKTAILNLLKKEKNVRKEDIAYSFQETVVEILLEKSLWAMKKTGIKRLVVVGGVSANSRLREVFKKASQEYGFELYIPHPSLSTDNALMIAYAGMERFKRGVVAPLDVNPQPNIPLEEFGRIWTEGHHHHHH” here?
A: soluble

Q: With “DEAWLTEMLKRVNVLPEALVLTQAANESAWGTSRFATQANNLFGQWCYKQGCGIVPAQRAAGKTHEVQKFDSVQQSIHGYFMNVNRNPAYADLRDIRAMLADKHKNLFSVATASELTHGLLSYSERGIAYVNDLRSMIRHNNAYWTQ” as the sequence, how does the “soluble on expression in E. coli” value read?
A: not soluble

Q: With “MKREQILSLIAEIDDLLNALNMVVKEIEEKKREFSDKEPDQFILRALGSLLHDFYTIIEDIFELISSEMNGVRLDSFDWHKRLLNKMTLEIPGLRPAVISKRLKEMLDEYLRFRHVFRNVYGYLLQWERMKPLLEKAGAVYERFEEEIERFKDFLRELAEKM” as the sequence, how does the “soluble on expression in E. coli” value read?
A: not soluble

Q: Which “soluble on expression in E. coli” value does the source give for “MKTIRYALKKEKEMMKKFIAPLLALLVSGCQIDPYTHAPTLTSTDWYDVGMEDAISGSAIKDDDAFSDSQADRGLYLKGYAEGQKKTCQTDFTYARGLSGKSFPASCNNVENASQLHEVWQKGADENASAIRLN” here?
A: not soluble

Q: With “MGSDKIHHHHHHMIKSKLKGFAAVTVACLAVTACGSDSNNEDGTDQNATYVQFYNASAGSTATALKVADKTYESVIYGDTMPRFTSTAGVSAIEVMAKDASDKDISIYKEDIDLKVATDHFFVLHGDFAEPKLLNINYSRTELDKLNEVAENSKMQLLIANTAVHAQAFDAYVSKSTQTFADAVMLGSVAYGEASQPQVMDTGEYKVYLTPAGTTNVSYTTANIKFSAKVPYKLIIREGFGASDSKITLDSVDSTTNVRNHVALEASVDYRVFNGLGSHIIDVKVASSKQETLFSEVPSFGVTAYQGAEFNDFGVSVFDHGTQNKLLDNVLITLNQDDIKTIFIYEQATEQGSQVKAMEMKQTQTPSPYSFKFDIVSFADKSNLTVYFLKANDTIETAVNKITAVNPASPQSVTVPAGEYSIKVIAVENGTKTVVYASDLMDFSNEDNVTMVLNKDPATSFGYNLIKI” as the sequence, how does the “soluble on expression in E. coli” value read?
A: not soluble

Q: For “MFPSFLRRTAAKNGSYANEISSSIIINRPAERLFDLWRKPETLPILMGHFASIEILNHTDSNWRINTPIGSLIEWQARIIDEKPGEYIHWRSLEGARVPNEGRLSFQPAASEAGTAVTLTIRYNPPGGLIGKKIGQMFDMFSRDMLTKTLYRFKKLAEDERVLEHHHHHH”, which “soluble on expression in E. coli” value is on record?
A: not soluble
